experiment: yeast display, Sf9 membrane polyspecificity reagent, FACS + sequencing; frameworks hold sequencing errors
In short: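 A synthetic nanobody library was expressed on Saccharomyces cerevisiae BJ5465 by galactose induction for 36–48 hours. The library was stained for 1 hour at 4 °C with 10% biotinylated, detergent-solubilized Sf9 membrane reagent and enriched with streptavidin microbeads before FACS. Low and high (top ~1%) gates were set on anti-HA fluorescence for expression and streptavidin fluorescence for reagent binding, and each polyreactivity label reflects the gate of origin.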

Sequence | polyreactivity (PSR sort gate)
VQLVESGGGLVQAGGSLRLSCAASGRIFSNNAMGWYRQAPGKEREFVAAITTSAGRTYYADSVKGRFTISRDNAKNTVYLQMNSLKPEDTAVYYCAAEPRQYWEYNYWGQGTQVTVSS | high polyreactivity
QFQLVESGGGLVQAGGSLRLSCAASGGTLYIYAMGWYRKAPGKERELVAAIRGRGGSTYADSVKGRFTISRDNAKNTVYLQMNSLKPVDTAVYYCAAYARQRSNTIYYDYWGQGTQVTVSS | high polyreactivity
QVQLVESGGGLVQAGGSLRLSCAASGLTFYANAMGWYRQAPGKERELVATISVGTDSTNYADSVKGRFTISRDNAKYTVYLQMNRLKPEDTAVYYCNALYEEYYAQDPYDYWGQGTQVTVSS | high polyreactivity
QVQLVESGGGLDQAGGSLRLSCAASGFTSGYNVLGWYRQAPGTARELVAAISWRGTSTYYADSVKGRFTISRDNAKNTVYLQMNSLKPEDTAVYYCAARQRWYWRGYDYWGQGTQVTVSS | high polyreactivity
QVQLVESGGGLVQAGGSLRLSCAASGLTFWHYAMGWYRQAHGKERELVAAISSGGRTYYADSVKGRFTISRDNAKNTVYLKMNSLKPEDSAVYYCAARGPQYYVYGYDYWGQGTQVTVSS | high polyreactivity
QVHLVESGGGLVQAGGRLRLSCAASGRIFGTNAMGWYRQAPGKERELVATITRGGGNTYYADSVKGRFTISRDKAKNTVYLQRNSLKPEDTAVYYCAAKFHRFAWFSHYDYWGQGTQVTVSS | low polyreactivity
QVQLVESGGGLVQAGGSLRLSCAASGRTFVPYDMGLYRQAPGKERELVAAISSGDSTNYTDSVKGRFTISRDNAKNTVYLQMNSLKPEDTAVYYCAADLTYTMDHWGQGTQVTVSS | low polyreactivity
QVQLVQSGGVLVQAGGSLRLSCAASGFIFNTYAMGWYRPAPGKERELVAAIDGRGGTTYYADSVKGRFTISRDYAKNTVYLQMHSLKPEDTAVYYCAARYQRLGIRYGYWGQGTQVTVSS | high polyreactivity
QVQLVESGGGLVQAGGSLRLSCAASGFTFQYYAMGWYRQAPGKERELVAAINWSGGRTYYADSVKGRFTISRDNAKNTVYLQMNSLKPEDTAVYYCAATRSFSGGYGYVSYDYWGQGTHVTVSS | high polyreactivity
QVQLVESGGGLVQAGGSLRLSCAASGRIFTHYAMGWYRQAPGKERELVAAISRTGGTTNYADSVKGRFTISRDNAKNTVYLQMNSLKPEDTAVYYCAAVGKGAKDYFKYYSLGQGTQVTVSS | high polyreactivity
QVQLVESGGGLVQAGGSLRLSCAASGIIFGGYAMGWYRQAPGKERELVASITWGGGSTYYADSVKGRFTISRDNAKNTVYLQMNSLKPEDTAVYYCNKRGYPGYDWGQGTQVTVSS | low polyreactivity
QVHLVESGGGLVQAGGSLRLSCAASGFIFPAYVMGWYRQAPGKERELVAVIGSGGSTSYADSVKGRFTISRDNAKNTVYLQMNSLKPEDTAVYYCTADPTWFGYVYYQYDYWGQGTKVTVSS | low polyreactivity
QVQLVESGGGLVQAGGSLRLSCAASGSIFGDNAMGWYRQAPRKERELVAVISSSGSTYYADSVKGRFTISRDNAKNTVFLQMNSLKPEDSAVYYCNAYQFDWYEEYYYWGQGTQVTVSS | low polyreactivity
QVQLVESGGGLDQAGGSLRLSCAASGITFTSYAMGWYRQAPGTEREFVAAISWTDTSTYYADSVKGRFTISRDNAKNTVYLQMNSLKPEDTAVYYCADEYEVGYFGYEYWGQGTQVTVSS | high polyreactivity
QVQLVESGGGLVQAGGSLRLSCAASGSTIYSYTMGWYRQAPGKERELVAAISRGSSTYYADSVKGRFTISRDNAKNTVYLQMNSLKPEDTAVYYCAAQYRQIYYSYFEYYWGQGTQVTVSS | high polyreactivity
QVQLVESGGGLVQAGGSLRLSCAASGITFSSYTMGWYRQARGKERELVAAISRTGGSTYYADSVKGRFTISRDNAKNTVYLQMNSLIPEDTAVYYCAARVAGRTLSGGDYWGQGTQVTVSS | high polyreactivity
QDQLVESGGGLVQAGGSLRLSCAASGSTFGYYAMGWYRQAPGKERELVAAISWRGGTYYADSVKGRFTISRDNAKNTVYLQMNSLKPEDTAVYYCAADDYIVSRYRYGVRYGYWGQGTQVTVSS | high polyreactivity
QVQLVESGGGLVQAGGSLRLSCAASGFIFRRYAMGWYRQAPGKERELVAAINYSGGSTYYADSVKGRFTISRDNAKNTVSLQMNSLKPEDTSVYYCNAFGLRYYEYDYWGQGTQVTVSS | low polyreactivity
QVQLVESGGGLVQAGGSLRLSCAASGRTFDSYVMGWYRQAPGKERELVAAISSRGGTYYADSVKGRFTISRDNAKNTVYLQMNSLKPEDTAVYYCAARIYRKYYRYDYWGQGTQVTVSS | high polyreactivity
QVQLVESGGGLVQAGGSLRLSCAASGSTFTYNAMGWYRQAPGKERELVASISSGTTTYYADSVKGRFTISRDNAKNTVYLQMNCLKPEDTAVYYCAVDSWSRVQGWLAHYYDYWGQGTQVTVSS | low polyreactivity
QVQLVESGGGLVQAGGSLRLSCAASGSIFNQYAMGWYRQAPGKERELVARIRGSTGTTYYADSVKGRFTISRDNAKNTVYLQMNSLKPEDTAVYYCNAARYQGRSRFDYWGQGTQVTVSS | high polyreactivity
QVQLVESGGGLVQAGGSLRLSCAASGRIFVQNAMGWYRQAPGKEREVVAAISSRGTSTYYADSVKGRFTISRDNAKNTVYLQMNSLKPEDTALYYCAAREWRTFDYWGQGTQVTVSS | low polyreactivity

Sequence | polyreactivity (PSR sort gate)
QVQLVESGGGLVQAGGSLRLSFAASGSIFVQYAMRWYRPAPGKERELVAAIDFSDTSTYYADSVKGRFTISRDNAKNTVYLHMNSLKPEDTAVYYCAAEEDSPCRSAIAEEEYWGQGTLVTVSS | low polyreactivity
QVQLVESGGGLVQAGGSLRLSCAASGYIYGVYAMGWYRQAPGKERELVAAISYGVGSTYYADSVKGRFTISRDNAKNTVYLQMNSLKPEDTAVYYCAAEDTQVRWSPVRPLEYYCGQGTQVTVSS | low polyreactivity
QVQLVESGGGLVQAGGSLRLSCAASGSIFKSYAMGLYRQAPGKEREFVASITKSGGTTYYADSVKGRFTISRDNAKNTVYLQMNSLKPEDTAVYYCAADWYRSSWTYNYWGQGTQVTVSS | low polyreactivity
QVHLVESGGGLVQAGGSLRLSCAASGFTFYYYAMGWYRQAPGKEREFVAAITRGGGSTYYADSVKGRFTISRDKAKNSVYLQMNSLKPEDTAVYYCAADPQSTIRDYWGQGTQVTVSS | high polyreactivity
QVQLVESGGGLVQAGGSRRLSCAASGFTFYWYAMGWYRQAPGKERELVAAITRGGRTYYADSVKGRFTISRDNAKNTVYLQMNSLKPEDTAVYYCNAVEFTIAWCYTMDYWGQGIQVTVSS | high polyreactivity
QVQLVESGGGLVQAGGSLRLSCAASGSIFRTYAMGWYIQAPGKERELVAAIRRSGGRTYYADSVKGRFTISRDNAKNTVYLQMNSLKPEDTAVYYCNKRVSKQSKYDYWGQGTQVTVSS | high polyreactivity
QVQLVESGGGLVQAGGSLRLSCAASGSIFNYYAMGWSRQAPGKERELVAAITTSGGNTYYADSVKGRFTISRDNAKNNVYLQMNILKPEDTAVYYCNADYRQITSYGFDYWGQGSQVTVSS | low polyreactivity
QVHLVESGGGLVQAGGSLRLSCAASGGTFQDYTMGWYRQAPGKEREFVAAISLSGTRTYYADSVKGRFTISRDNAKNTVYFQMNSLKPEDSAVYYCSTSGPQYYSRNFDYWGQATQVTVSS | low polyreactivity
QVQLVESGGGLVQAGGSLRLSCAASGLTFKYYAMGWYRQAPGKERELVAAITATGGLTYYADSEKGRFTISRDNAKKTVYLQMNSLKPEDTAVYYCNARQHQTYYFYKHDYWGQGTQVTVSS | high polyreactivity
QVQLVESGGGLVQAGGSLRLSCAASGSTINYYAMGWYRQAPGKERELVAAISSGTSTYYADSVKGRFTISRDNAKNTVYLQMNSLKPEDTAVYYCARRYYYQYRYDYWGQGTQVTVSS | high polyreactivity
QVQLVESGGGLVQAGGSLRLSCAASGFTFRTNAMGWYRQAPGKERELVAAISTGARTYYADSVKGRFTISRDNAKNTVYLQMNSLKPEDTAVYYCNKVLRRFLSRYDYWGQGTQVTVSS | high polyreactivity
QVQLEESGGGLVQAGGSLRLSCAASGSTFYANTMGSYRQAPGKERELVATISIDGSTNYADSVKGRFTISRDNAKNTVYLQMNTLKPEDTAVYYCNADVYSVLYGYWGQGTQVTVSS | low polyreactivity
QVQLVESGGGLVQAGGSLRLSCAASGRIFRKNVMGWYRQAPGKERELVAAITTRGGSTYYADSVKGRFTISRDNAKNTVYLQMNSLKPEDTAVYYCATRVQWNSRYDYWGQGTQVTVSS | high polyreactivity
QVQLVESGGCLVQAGGSLRLSCAASGRISPDYAMGWYRQAPGTERELVATISSGAGTTYYADSVKGRFTISRDNAKNTVYLQMNSLKPEDTAVYYCAAEDPSEFDYWGQGTQVTVSS | low polyreactivity
QVQLVESGGGLVQAGGSLRLSCAASGRTFGRYAMGWYRPAPGKERELVAAIRWTGGGTYYADSVKGRFTISRDNAKNTVYLQMNSLKPEDTAVYYCAADDYYYSVYRYEYWGEGTQVTVSS | high polyreactivity
QVKLVESGGGLVQAGGSLRLSCPASGSTFYYNAMGWYRQAPGKERELVARISRSGGSTYADSVKGRFTISRDNAKNTVYLQMNSLKPEDTAVYYCNADAYGTPEFTSYAVRYDYWGQGTQVTVSS | low polyreactivity
QVQLVESGGGLVQAGGSLRLSCAASGRIFPYNAMGWYRQAPGKERELVAAISFGGGRTYYADSVKGRFTISRDNAKNTVYLQMNRLKPEDTAVYYCNTASPQDIVFRVFYGGDYWGQGTQVTVSS | low polyreactivity
QVQLVESGGGLVQAGGSLRLSCAASGSTFYTYAMGWYRQAPGKERELVAAITRGGGRTYYADSVKGRFTISRDNAKNTVYLQMNSLKPEDTAVYYCAATVGYGHSYAGWYWVDYWGQGTQVTVSS | high polyreactivity
QVQLVESGGGLVQAGGSLRLSCAASGSTFSYNAMGWYRQAPGKERELVAAIDANGGSTYYADSVKGRFTISRDNAKNTVYVQMNSLKPEDTAVYYCAAAGYWYYYVPNDSWGQGTQVTVSS | low polyreactivity
QVQLVESGGGLVQAGGCLRISCAASGSTFPNYAMGWYREAPGKERELVARISYNVGRTYYADSVKGRFTISRDNAKNTVYLQMNSLKPEDTAVYYCAAGVGWRYRVRWYYSLGDYWGQGTQVTVSS | high polyreactivity
QVQLVESGGGLVQAGGSLRLSCAASGYIFPSYAMGWYRQAPGKERELVAAISESGGSTNYSDSVKGRFTISRDYAKNTVYLQLNSLKPEDTAVYYCAAGYYTVPPDMNSWGQGTQVTVSS | low polyreactivity
